Values quoted from earlier work, collected in paper PMC2879707.

Target: F-actin (Oryctolagus cuniculus) (UniProt P68135)

Which Kd does the source give for espin (from UniProt Q63618) here?
Its Kd is 150 nM.
